# Measured values reported in patent publication US20250320281A1.
# Assays:
# Assay in all cases: cell-based or functional assay
# [1] = molecular target: HIV-1 Env of isolate MGRM-A-002 (HIV-1)
# [2] = molecular target: HIV-1 Env of isolate 92WR021 (HIV-1)
# [3] = molecular target: HIV-1 Env of isolate MGRM-A-009 (subtype A) (HIV-1)
# [4] = molecular target: HIV-1 Env of isolate MGRM-Chronic-B-008 (subtype B) (HIV-1)
# [5] = molecular target: HIV-1 Env of isolate MGRM-Chronic-B-002 (subtype B) (HIV-1)
# [6] = molecular target: HIV-1 Env of isolate MG RM-D-019 (HIV-1)
# [7] = molecular target: HIV-1 Env of isolate 92BR020 (HIV-1)
# [8] = molecular target: HIV-1 Env of isolate JR-CSF (pseudovirus) (HIV-1) (UniProt P20871)
# [9] = molecular target: HIV-1 envelope glycoprotein (Env) of isolate MGRM-C-015 (HIV-1)
# [10] = molecular target: HIV-1 Env of isolate MG RM-D-008 (HIV-1)
# [11] = molecular target: HIV-1 Env of isolate 92RW008 (HIV-1)
# [12] = molecular target: HIV-1 Env of isolate MGRM-Chronic-B-018 (subtype B) (HIV-1)
# [13] = molecular target: HIV-1 Env of pseudovirus isolate MGRM-G-028 (HIV-1)
# [14] = molecular target: HIV-1 Env of pseudovirus isolate MGRM-G-024 (HIV-1)
# [15] = molecular target: HIV-1 Env of isolate MGRM-AG-012 (subtype AG) (HIV-1)
# [16] = molecular target: HIV-1 93UG077 Env (pseudovirus, clade A) (HIV-1)
# [17] = molecular target: HIV-1 JRFL Env (pseudovirus, clade B) (HIV-1)
# [18] = molecular target: HIV-1 Env of isolate CMU02 (clade AE), on pseudovirus (HIV-1)
# [19] = molecular target: HIV-1 Env of isolate MGRM-D-001 (clade D), on pseudovirus (HIV-1)
# [20] = molecular target: HIV-1 93UG077 Env (pseudovirus) (HIV-1)
# [21] = molecular target: HIV-1 Env of isolate 92TH021 (clade AE), on pseudovirus (HIV-1)
# [22] = molecular target: HIV-1 Env of isolate 92UG005 (clade D), on pseudovirus (HIV-1)
# [23] = molecular target: HIV-1 92BR020 envelope glycoprotein (Env) on pseudovirus (HIV-1)
# [24] = molecular target: HIV-1 Env of isolate MGRM-D-026 (pseudovirus) (HIV-1)
# [25] = molecular target: HIV-1 Env of isolate MGRM-F1-004 (pseudovirus) (HIV-1)
# [26] = molecular target: HIV-1 Env of isolate MGRM-Chronic-B-002 (subtype B pseudovirus) (HIV-1)
# [27] = molecular target: HIV-1 Env of isolate MGRM-D-012 (pseudovirus) (HIV-1)
# [28] = molecular target: HIV-1 92UG005 envelope glycoprotein (Env) on pseudovirus (HIV-1)
# [29] = molecular target: HIV-1 92UG024 envelope glycoprotein (Env) on pseudovirus (HIV-1)
# [30] = molecular target: HIV-1 Env of isolate NL43 (subtype B pseudovirus) (HIV-1)
# 5329_C19 (PGT-136) (antibody), sequence (VH): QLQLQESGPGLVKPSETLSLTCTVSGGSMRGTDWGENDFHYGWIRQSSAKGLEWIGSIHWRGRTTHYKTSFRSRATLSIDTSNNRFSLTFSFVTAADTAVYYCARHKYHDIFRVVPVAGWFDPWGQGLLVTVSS
# 5329_C19 (PGT-136) (antibody), sequence (VL): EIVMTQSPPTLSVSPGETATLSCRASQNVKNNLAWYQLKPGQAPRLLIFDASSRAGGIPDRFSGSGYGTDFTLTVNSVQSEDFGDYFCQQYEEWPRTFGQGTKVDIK
# 5345_I01 (PGT-137) (antibody), sequence (VH): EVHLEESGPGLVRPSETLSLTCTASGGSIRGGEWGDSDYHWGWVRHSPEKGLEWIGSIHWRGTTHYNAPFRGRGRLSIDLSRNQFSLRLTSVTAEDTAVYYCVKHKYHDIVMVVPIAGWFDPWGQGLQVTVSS
# 5345_I01 (PGT-137) (antibody), sequence (VL): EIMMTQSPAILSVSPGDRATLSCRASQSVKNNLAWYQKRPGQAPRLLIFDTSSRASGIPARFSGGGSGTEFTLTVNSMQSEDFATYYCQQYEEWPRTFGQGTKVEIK
Substance,IC50 [1],IC50 [2],"IC50 (µg/mL), pseudovirus neutralization [3]",IC50 neutralization [4],IC50 neutralization [5],"IC50 (µg/mL), pseudovirus neutralization [6]",neutralization IC50 [7],Primary Neutralization Index (B cell culture supernatant) [8],"IC50 (µg/mL), pseudovirus neutralization [9]","IC50 (µg/mL), pseudovirus neutralization [10]",IC50 [11],IC50 neutralization [12],"IC50 (µg/mL), pseudovirus neutralization [13]","IC50 (µg/mL), pseudovirus neutralization [14]","IC50 (µg/mL), pseudovirus neutralization [15]",IC50 neutralization [16],IC50 neutralization [17],"IC50, pseudovirus neutralization [18]","IC50, pseudovirus neutralization [19]","IC50, pseudovirus neutralization [21]",also measured
5345_I01 (PGT-137) (antibody),> 50 µg/mL,3.52 µg/mL,> 50 µg/mL,> 50 µg/mL,> 50 µg/mL,> 50 µg/mL,7.81 µg/mL,1.1,1.98 µg/mL,> 50 µg/mL,0.148 µg/mL,> 50 µg/mL,> 50 µg/mL,0.051 µg/mL,> 50 µg/mL,,,,,,
5147_N06 (PGT-130) (antibody),0.01 µg/mL,0.004 µg/mL,0.308 µg/mL,5.18 µg/mL,> 50 µg/mL,> 50 µg/mL,1.4 µg/mL,19.3,0.344 µg/mL,> 50 µg/mL,0.089 µg/mL,31.9 µg/mL,0.074 µg/mL,5.84 µg/mL,> 50 µg/mL,> 10 µg/mL,0.0346 µg/mL,> 10 µg/mL,> 10 µg/mL,0.0082 µg/mL,"Polyclonal Transfectant Neutralization Index [8]: 1.24; Neutralization by PGT-130, IC50 [20]: > 10 µg/mL; Neutralization by PGT-130, IC80 [20]: > 10 µg/mL; Neutralization by PGT-130, IC90 [20]: > 10 µg/mL; Neutralization by PGT-130, IC95 [20]: > 10 µg/mL; neutralization IC50 (pseudovirus) [20]: > 10 µg/mL; IC50, pseudovirus neutralization [22]: 0.474 µg/mL"
5343_B08 (PGT-135) (antibody),> 50 µg/mL,> 50 µg/mL,> 50 µg/mL,> 50 µg/mL,> 50 µg/mL,> 50 µg/mL,0.073 µg/mL,1.8,0.104 µg/mL,> 50 µg/mL,1.42 µg/mL,> 50 µg/mL,> 50 µg/mL,0.062 µg/mL,41.9 µg/mL,> 10 µg/mL,> 10 µg/mL,> 10 µg/mL,> 10 µg/mL,> 10 µg/mL,"IC50 (neutralizing activity, pseudovirus) [20]: > 10 µg/mL; IC50, pseudovirus neutralization [22]: > 10 µg/mL"
5329_C19 (PGT-136) (antibody),> 50 µg/mL,> 50 µg/mL,> 50 µg/mL,> 50 µg/mL,> 50 µg/mL,> 50 µg/mL,8.61 µg/mL,0.9,11.1 µg/mL,> 50 µg/mL,> 50 µg/mL,> 50 µg/mL,> 50 µg/mL,0.152 µg/mL,> 50 µg/mL,> 10 µg/mL,> 10 µg/mL,> 10 µg/mL,> 10 µg/mL,> 10 µg/mL,"IC50 (neutralizing activity, pseudovirus) [20]: > 10 µg/mL; IC50, pseudovirus neutralization [22]: > 10 µg/mL"
5141_B17 (PGT-126) (antibody),,,,,,,,1410,,,,,0.012 µg/mL,> 50 µg/mL,,0.0256 µg/mL,0.014 µg/mL,> 10 µg/mL,0.0639 µg/mL,0.115 µg/mL,"IC50, pseudovirus neutralization [23]: 0.0163 µg/mL; IC80 (pseudovirus neutralization) [23]: 0.0457 µg/mL; IC90 (pseudovirus neutralization) [23]: 0.0846 µg/mL; IC95 (pseudovirus neutralization) [23]: 0.152 µg/mL; IC50, pseudovirus neutralization [24]: > 50 µg/mL; IC50, pseudovirus neutralization [25]: 0.063 µg/mL; IC50 (µg/mL), pseudovirus neutralization [26]: 0.078 µg/mL; Polyclonal Transfectant Neutralization Index [8]: 102; IC50, pseudovirus neutralization [27]: > 50 µg/mL; neutralization IC50 (pseudovirus) [20]: 0.0256 µg/mL; IC50, pseudovirus neutralization [28]: 0.0181 µg/mL; IC80 (pseudovirus neutralization) [28]: 0.145 µg/mL; IC90 (pseudovirus neutralization) [28]: 0.553 µg/mL; IC95 (pseudovirus neutralization) [28]: 2.45 µg/mL; IC50, pseudovirus neutralization [29]: > 10 µg/mL; IC80 (pseudovirus neutralization) [29]: > 10 µg/mL; IC90 (pseudovirus neutralization) [29]: > 10 µg/mL; IC95 (pseudovirus neutralization) [29]: > 10 µg/mL; IC50, pseudovirus neutralization [22]: 0.0181 µg/mL; IC50 (µg/mL), pseudovirus neutralization [30]: > 50 µg/mL"
5136_H01 (PGT-131) (antibody),> 50 µg/mL,0.012 µg/mL,0.035 µg/mL,> 50 µg/mL,> 50 µg/mL,> 50 µg/mL,6.16 µg/mL,6.2,1.01 µg/mL,> 50 µg/mL,1.01 µg/mL,> 50 µg/mL,0.466 µg/mL,10.7 µg/mL,> 50 µg/mL,,,,,,
4858_P08 (PGT-123) (antibody),,,,,,,,1.6,,,,,0.008 µg/mL,0.032 µg/mL,,0.0303 µg/mL,0.0283 µg/mL,> 10 µg/mL,0.215 µg/mL,> 10 µg/mL,"neutralization IC50 [23]: 0.013 µg/mL; neutralization IC80 [23]: 0.039 µg/mL; neutralization IC90 [23]: 0.0741 µg/mL; neutralization IC95 [23]: 0.134 µg/mL; IC50, pseudovirus neutralization [24]: > 50 µg/mL; IC50, pseudovirus neutralization [25]: 1.78 µg/mL; IC50 (µg/mL), pseudovirus neutralization [26]: 0.234 µg/mL; IC50, pseudovirus neutralization [27]: > 50 µg/mL; neutralization IC50 (pseudovirus) [20]: 0.0303 µg/mL; neutralization IC50 [28]: 2.49 µg/mL; neutralization IC80 [28]: > 10 µg/mL; neutralization IC90 [28]: > 10 µg/mL; neutralization IC95 [28]: > 10 µg/mL; neutralization IC50 [29]: > 10 µg/mL; neutralization IC80 [29]: > 10 µg/mL; neutralization IC90 [29]: > 10 µg/mL; neutralization IC95 [29]: > 10 µg/mL; IC50, pseudovirus neutralization [22]: 2.49 µg/mL; IC50 (µg/mL), pseudovirus neutralization [30]: > 50 µg/mL"
5114_A19 (PGT-128) (antibody),0.149 µg/mL,0.005 µg/mL,0.005 µg/mL,0.143 µg/mL,0.036 µg/mL,> 50 µg/mL,0.009 µg/mL,77.5,0.196 µg/mL,0.033 µg/mL,0.003 µg/mL,0.02 µg/mL,0.008 µg/mL,0.095 µg/mL,> 50 µg/mL,,,,,,Polyclonal Transfectant Neutralization Index [8]: 136
